The values that follow are results of earlier work, collected in PMC5132258.

This data set concerns the target His89 (UniProt position 89, VLYCVHQRIDV). The note with it: not stated (folded wild-type matrix protein implied; myristoylation state not given).

As usually defined, the pKa is the negative logarithm of the acid dissociation constant. With “HIV-1 matrix protein p17 (MA), N-terminal domain of the Gag polyprotein (Human immunodeficiency virus type 1)”, the pKa is reported as 6.5.
